Measured values taken from paper PMC7895437.

Experiments:
golgin A3 = golgin A3 (UniProt Q08378); assay: anti-FLAG co-IP, golgin A3 Western blot; settings: reference: Cα L206R, vehicle; sites S114
[1] = molecular target: PKA regulatory subunit IIβ, FLAG-tagged (RIIβ-FLAG) (human) (UniProt P31323); assay: co-IP
Chain of UniProt P31323 (P31323 whole entry): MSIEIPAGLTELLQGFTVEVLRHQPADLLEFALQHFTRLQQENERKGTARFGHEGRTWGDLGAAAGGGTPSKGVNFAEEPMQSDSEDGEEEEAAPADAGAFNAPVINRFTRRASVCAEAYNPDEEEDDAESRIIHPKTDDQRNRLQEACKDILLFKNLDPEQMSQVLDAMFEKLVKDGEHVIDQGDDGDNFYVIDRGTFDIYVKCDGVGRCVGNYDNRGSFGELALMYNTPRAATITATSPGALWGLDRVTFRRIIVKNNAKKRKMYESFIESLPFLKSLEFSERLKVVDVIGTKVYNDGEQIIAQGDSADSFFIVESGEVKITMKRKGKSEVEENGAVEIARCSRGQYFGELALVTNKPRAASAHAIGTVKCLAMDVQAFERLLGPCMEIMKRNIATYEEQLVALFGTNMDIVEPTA

| other: densitometry, relative units (golgin A3) | densitometry of golgin A3 co-precipitated with RIIβ-FLAG (WB) [1] | Substance |
| --- | --- | --- |
| lost; reference 1.8 ± 0.2 | – | RIIβ (PKA regulatory subunit IIβ) (from UniProt P31323) Cα L206R, 8-Br-cAMP |
| – | 1.8 | golgin A3 (from UniProt Q08378 1-1498) (natural protein) |
